The data set in a line: soluble on expression in E. coli; label from the status in PepcDB or PDB records.
Turning to “MGHHHHHHSHMGVTCVSQMPVAEGKSVQQTVELLTRKLEMLGAEKQGTFCVDCETYHTAASTLGSQGQTGKLMYVMHNSEYPLSCFALFENGPCLIADTNFDVLMVKLKGFFQSAKASKIETRGTRYQYCDFLVKVGTVTMGPSARGISVEVEYGPCVVASDCWSLLLEFLQSFLGSHTPGAPAVFGNRHDAVYGPADTMVQYMELFNKIRKQQQVPVAGIR”, the “soluble on expression in E. coli” value was “soluble”.

Regarding “DLGTQFLKIGIVKPGIPMDIALNTESRRKTPNVVMIQDGHRTFADAAIGMQVRYPHLVHGQLNDLVGKSTQHPSFELFKRRNTFFEVDDAPKNASSINFKLGGESYTVEALTAMILANAKKFTEEYAQAAEIKDVVITVPVYFTPAERLAVERAAQMAGLTVLQLINDGTAAALSHGIFRRKEIGEKPQRLMVYDMGAAKTTATIVEFKLVKEKYEKQPKMTVLGVGFDRTLGGIEMTNRLRDHLIEMFEKNYKPKTKVNTNRRAMTKFSKEAERLKQVLSANAEHFAQIESAHEDIDAKLKVTREDFNHLISDMESRFGEPIEQALRMAQIPIDDIDQFVLMGAGTRVPKVQEIVQKTIGTKEIGKFLNTDEAVAMGALFQAAHLSKGFKVKPFNIEEKVIFPVEVHFVSKIRDEKTEEITGEKNVVKTLFAANSVYPTHPKTISLTSYSDDFSVALKYGKIESFTKQQVQEIGSLLDNLVDVEISGLSEALKNRSSEESEFKGVKVSFIVDASGIVRVRRAEALFEPKSGLVGSIASTISGLFSSKTEEGEPTTDDSTPQSTEEKTEEKESVKVEDSTPEPEPETPVNSTSEESPKTNETEKNASSGNATEVKEKKKELPSIVRLRITNKYPSAFVPNKYDVQEEKRRMEAFAEKERLASERAAVENELESFNFECSQYLEETEFTDYMADEEKTKLEDSVKRIRAWLEDDVTKDTPTKDFTDNLLELKNVVRSVKKRQEHDKAVPEKLKSLETLLETTFSLTTLGNNVDEEKALFKKEDRDGLKSKLDKLKIWVTDVRKHLDLKKKTDDFNFTGKDIDTKTKNLNREVDRFMKKMKKITTLDDLAKDGKIDIDTIVEEAEKKKAEQDKKKEKKSTKKANESKVENESEIKTEL”, the “soluble on expression in E. coli” value is on record as “not soluble”.

“LKSLRCFWNVRFITLSMLPRYTAQMLRRFIPPMLSLWLLFASLAQANGTVDKIQIKGLDKGDDVEMMKNITVSLSLYSVVGKEQGEFRLEYLLSQAEFQTRQALEPFGYYAPTIRIDAPRQNDHITVVIYVDKGEPVRVRQAHVAMTGAAAQDHYLQRDLEDFKPKLGEIFNHPTYEASKVRITRRLAERGYFDADFTHRRVEVTRAAHAADIDLIWESGRRYDMGPVRFHYDYFHEGLFNPLVYWDEGSYFHEGKLDRLRESLTKLDYFSSIDIQPKPEEADPEGNVPVDVKLERAKSKIYTAGISYGSESGAGLRAGVERRYMNARGHKMNARLDYAQNLKSLTTAYQIPAFKWLDGWYIFFARAYDEQTKYIDLRNVKLSAARSGQINRHLTATASLNALRGRWRYRADDGTNTVAYQQSTLVYPQLEASYVDVDDATFPRNGSAATVLLRGGASALGSKSNFTQLHGQLRWFHGLGASSRLILRGEAGTTWASDLVAMPPSLRFFAGGVNSIRGYAFREVGPRTAKPDAFALGAKHVFSAGAEFEYYYKGGPFGGAVFVDSGSAFNRYPDWHTGVGIGLRYRSPVGPVRVDIARGLNSPDSKIQLYIDIGANL”: the “soluble on expression in E. coli” value was “soluble”.

“NHELDWSDIKGQHHAKNAMVIAACGGHSILLSGAPGSGKTMMAKRFSTLLPELSETQALECAAINSIRGKLPDFREWRLPPFRAPHHTASPVALVGGGNPPKPGEISLAHHGVLFLDELPEFNRQVLETLREPLESGHICISRAAAQIEFPAKFQLIAAMNPCPCGQWGNSQANCLCTPDRI”: the “soluble on expression in E. coli” value is given as “not soluble”.

Consider “MLWKEYEEASSLTARVVKHLDKFDMIVQADKYEKTHEIDLQQFFTSTVGVLKMEPFATWDRELRENRMKRINKAE”, for which the “soluble on expression in E. coli” value is “not soluble”.

For “VRRGQLIDAAREITAQHGVAALTIRGVAEAAGVSLGVVHYHFEDKEELLTEMGQSLILEVSEAMRMAFSQLVGPLKKRGVPGLRELLCAGIRGLWPIIEATPDQQLLTYEITAQALRQRGAGNDSAGLVAARQYRTMDTEAVAFLNLCAHRAGVTWGTPVDQVARFALAVLDGAVLRWLVDRDSDAARTAFDDLVQIIAAKALEGEGSW”, the “soluble on expression in E. coli” value is given as “not soluble”.

Turning to “MSLKRSIHVQAFVYNEKKDEILIVRNRNLAWTFPGGHVETDQTMEEALASKVKEQTNIDIEIESILHCKERRATWEHVCTFVFRAKPVGEMATFSNDDNVFRVKWIPIPLADDLLPIDQLSLNELVRSEGVLYENEGHHHHHH”, the “soluble on expression in E. coli” value was “soluble”.

For “MGSDKIHHHHHHMKLLLTSGGIQNDSQRRALVDLLGKPIEEAHALCIPTAVYGMKEGPYHAYLFITGTGSTPMCELGFQSVGVLELTALPILDESLWVPLVEQADVLLVNGGDPLFLNYWMKKSGLADRLPSLKAVYVGLSAGSMVLTPRIGHAFVEWTAPHTTTDETLGLVEFSIFPHLDHELLPENTLDEAVKWAADLTGPSYAIDDQTAIQVVDGVVKVISEGHWKRFD”, the “soluble on expression in E. coli” value is “not soluble”.

With “MNAKAVKEVLKAHVGRAYAPYSGFPVVALVEAEGEVFLGVNVENASFPLSQCAERNAVAAMVLAGKRRLERVHVYSPKGPIPPCGGCRQVLMEFGGPEVEVVLHGPEEEVRTTLGALLPLAFRL”, the “soluble on expression in E. coli” value is recorded as “soluble”.

Consider “GSHMHAKVGDYLVVKGTTTERHDQHAEIIEVRSADGSPPYVVRWLVNGHETTVYPGSDAVVVTATEHAEAEKRAAARAGHAAT”, for which the “soluble on expression in E. coli” value is “soluble”.

“MQARKLAVDGAIEFTPRVFADDRGLLILPYQEEAFVEAHGGPLFRVAQTIHSMSKRGVVRGIHYTVTPPGTAKYVYCARGKAMDIVIDIRVGSPTFGQWDSVLMDQQDPRAVYLPVGVGHAFVALEDDTVFSYMASRSYVTQDELALSALDPALGLPIDIGVEPIVSDRDRVAITLAEAQRQGLLPDYTTSQEIERRLTAVPVST”: the “soluble on expression in E. coli” value was “soluble”.

Turning to “GDLVGPGCAEYAAANPTGPASVQGMSQDPVAVAASNNPELTTLTAALSGQLNPQVNLVDTLNSGQYTVFAPTNAAFSKLPASTIDELKTNSSLLTSILTYHVVAGQTSPANVVGTRQTLQGASVTVTGQGNSLKVGNADVVCGGVSTANATVYMIDSVLMPPA”, the “soluble on expression in E. coli” value is reported as “soluble”.

Take “ASRPHQWQTDEEGVRTGKCSFPVKYLGHVEVDESRGMHICEDAVKRLKATGKKAVKAVLWVSADGLRVVDEKTKDLIVDQTIEKVSFCAPDRNFDRAFSYICRDGTTRRWICHCFMAVKDTGERLSHAVGCAFAACLERKQKR”: the “soluble on expression in E. coli” value is on record as “soluble”.

In the case of “GPHMLGILNKMFDPTKRTLNRYEKIANDIDAIRGDYENLSDDALKHKTIEFKERLEKGATTDDLLVEAFAVVREASRRVTGMFPFKVQLMGGVALHDGNIAEMKTGEGKTLTSTLPVYLNALTGKGVHVVTVNEYLASRDAEQMGKIFEFLGLTVGLNLNSMSKDEKREAYAADITYSTNNELGFDYLRDNMVLYKEQMVQRPLHFAVIDEVDSILIDEARTPLIISGQAAKSTKLYVQANAFVRTLKAEKDYTYDIKTKAVQLTEEGMTKAEKAFGIDNLFDVKHVALNHHINQALKAHVAMQKDVDYVVEDGQVVIVDSFTGRLMKGRRYSEGLHQAIEAKEGLEIQNESMTLATITFQNYFRMYEKLAGMTGTAKTEEEEFRNIYNMQVVTIPTNRPVVRDDRPDLIYRTMEGKFKAVAEDVAQRYMTGQPVLVGTVAVETSELISKLLKNKGIPHQVLNAKNHEREAQIIEEAGQKGAVTIATNMAGRGTDIKLGEGVKELGGLAVVGTERHESRRIDNQLRGRSGRQGDPGITQFYLSMEDELMRRFGAERTMAMLDRFGMDDSTPIQSKMVSRAVESSQKRVEGNNFDSRKQLLQYDDVLRQQREVIYKQRFEVIDSENLREIVENMIKSSLERAIAAYTPREELPEEWKLDGLVDLINTTYLDEGALEKSDIFGKEPDEMLELIMDRIITKYNEKEEQFGKEQMREFEKVIVLRAVDSKWMDHIDAMDQLRQGIHLRAYAQTNPLREYQMEGFAMFEHMIESIEDEVAKFVMKAEIENNLEREEVVQGQTTAHQPQEGDDNKKAKKAPVRKVVDIGRNAPCHCGSGKKYKNCCGRTE”, the “soluble on expression in E. coli” value is reported as “soluble”.

As for “MGSDKIHHHHHHMKFAVSSKGDQVSDTLKSKIQAYLLDFDMELDENEPEIVISVGGDGTLLYAFHRYSDRLDKTAFVGVHTGHLGFYADWVPHEIEKLVLAIAKTPYHTVEYPLLEVIVTYHENEREERYLALNECTIKSIEGSLVADVEIKGQLFETFRGDGLCLSTPSGSTAYNKALGGAIIHPSIRAIQLAEMASINNRVFRTVGSPLLLPSHHDCMIKPRNEVDFQVTIDHLTLLHKDVKSIRCQVASEKVRFARFRPFPFWKRVQDSFIGKGE”, the “soluble on expression in E. coli” value is on record as “not soluble”.

Turning to “TALIASGLAPQPFYFYGFLPRQNKERTQAIEKLAAREETWILYESPHRLKETLKAIIKITGNDRKMVLCRELTKRFEEFLRGTVEDALNWATDEEVRGEFCIIIEGNANP”, the “soluble on expression in E. coli” value is recorded as “not soluble”.

Consider “MKHYLAIDIGGTAIKYGLISETGDLLEKEEMATEAYKGGPSILEKVKGLVKTYQDQMDLAGVAISSAGMVNPDEGEIFYAGPQIPNYAGTQFKKEIEETFGLPCEVENDVNCAGLAEAISGSAKDYPVALCLTIGTGIGGCLLFNSQVFHGSSHSACEVGYLHLSDGQFQDLASTTALVQEVVLAYGDDISQWDGRRIFEQAKAGDAICIAAISKQVDYLGQGIANICYVVNPNVVVLGGGIMAQKDYLADKLKTALDSYLVSSLAKKTQLKFASHGNNAGILGAYYHFKQKNERSCSFITLEKIENNLASS”, for which the “soluble on expression in E. coli” value is recorded as “not soluble”.

For the sequence “MNFHVMLTSSHETSFNFVVLLRANSKMKQQRNACRSCRLKECIKVGMNPRAVQGDIDTASTSSASPNLVSVEMHPYTNFREVECQTEVSTISSHPTSPSTLPFVSSGSSICSVSSSCSSVSTVYSNCLAMLPPNPSLPKYDYLLASLSRIFERVDEHAPEPLPNTYSFEHAFYNPHLICNRTKLTPTGERIATLPEVLQDFRRIFVLFTDVLSILPEFSRLDESDRMVLAKSRFSFFYWWLTCCWTAKVGCPGVCYANGAYHPSDKRQQAFPDVKGVTELSVETVSKPLANINITDAEMLVGSVFAIFYEYPLPPKVSYASTHILNEARDLYTQCMITVSPYSQLEAKSASRLAEISLIFSSITNLKYLTSDNIELSDVLHVMEVDQLITEAFDVHRPME”, the “soluble on expression in E. coli” value was “not soluble”.

As for “MAVLGLQGVRGGVGTTTITAALAWSLQMLGENVLVVDACPDNLLRLSFNVDFTHRQGWARAMLDGQDWRDAGLRYTSQLDLLPFGQLSIEEQENPQHWQTRLSDICSGLQQLKASGRYQWILIDLPRDASQITHQLLSLCEHSLAIVNVDANCHIRLHQQALPDGAHILINDFRIGSQVQDDIYQLWLQSQRRLLPMLIHRDEAMAECLAAKQPVGEYRSDALAAEEILTLANWCLLNYSGLKTPVGSAS”, the “soluble on expression in E. coli” value was “not soluble”.

As to “MGSDKIHHHHHHMVMEYELRTPLVKDQILKLKVGDVVYITGEIFTARDEAHARALEWMEEGKELPFSFDKGVVYHCGPLVKKNDEWRVVSAGPTTSARMNPFTPKILEKVECMGIIGKGGMSEEVVEAMRGKAAYFAFTGGAGALAAMSIKKVKGVVWEDLGMPEAVWLLEVERFGPCIVAIDAHGNSLYRR”, the “soluble on expression in E. coli” value is listed as “soluble”.

On to “MGNRLSKIYTRTGDRGETGLAGGRRVPKSHPRIEAIGAVDELNSQLGLLLAELLEARGAHPGLEEIVQALAPVQHRLFDLGGELAMPEYRALDETEVARLESCIDRWNDELGPLKNFILPGGSRPVAQAHVCRSLARSAERRCQALDQEETLEGVGLRYLNRLSDLLFVAARAIARRQGVAEILWEAAAKPD”, for which the “soluble on expression in E. coli” value is “not soluble”.
